What was measured:
[1] = biological target: T1, myostatin (UniProt O14793 267-375); experiment: cell-based or functional assay
T1 sequence (looked up): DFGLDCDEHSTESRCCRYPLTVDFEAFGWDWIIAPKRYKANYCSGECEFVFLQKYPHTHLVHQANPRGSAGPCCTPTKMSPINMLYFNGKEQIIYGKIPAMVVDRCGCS

[2] = biological target: BMP-2 (UniProt P12643 283-396); experiment: Biacore SPR, 25 C; Fc fusion captured with antibody capture kit, ligand as soluble analyte
Text: (§1) Specifically, commercially available follistatins (FS315, manufactured by R&D Systems and follistatin-Fc human chimera FS315-hFc, manufactured by Sino Biological), and FS315-GAG3-mFc fusion proteins were used to assess binding affinity and kinetics to activin, myostatin, and BMPs using Biacore assays. Briefly, FS315 was immobilized onto a CM5 chip, and follistatin-Fc fusion proteins were captured using human or mouse antibody capture kits (GE Healthcare). Post amine-coupling, a concentration series of activin, myostatin, or BMPs (e.g., BMP-2, -4, -6, -7, -9, -10, and GDF-1) was added as soluble analyte at 25° C. sActRTIB-hFc was used as a control. Binding affinities (Kd) and kinetics were determined using standard methods.

[3] = biological target: T2, BMP-10 (UniProt O95393 317-424); experiment: as above
T2 sequence (looked up): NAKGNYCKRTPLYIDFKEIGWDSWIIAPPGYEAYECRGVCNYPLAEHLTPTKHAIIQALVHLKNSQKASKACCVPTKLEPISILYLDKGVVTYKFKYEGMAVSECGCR
Text: as §1

[4] = biological target: T3, BMP-9 (UniProt Q9UK05 320-429); experiment: as above
T3 sequence (looked up): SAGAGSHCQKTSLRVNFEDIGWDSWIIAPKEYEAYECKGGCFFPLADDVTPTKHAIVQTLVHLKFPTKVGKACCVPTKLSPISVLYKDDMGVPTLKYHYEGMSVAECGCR
Text: as §1

[5] = biological target: T4, activin (UniProt P08476 311-426); experiment: cell-based or functional assay
T4 sequence (looked up): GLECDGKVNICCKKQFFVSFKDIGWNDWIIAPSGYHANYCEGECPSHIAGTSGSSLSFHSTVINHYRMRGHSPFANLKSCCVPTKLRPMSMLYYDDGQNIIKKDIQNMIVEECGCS

[6] = biological target: T1, myostatin; experiment: cell-based or functional assay; remark: listed apart in the source
[7] = biological target: T1, myostatin; experiment: Biacore SPR (Table 3)
Text: as §1

[8] = biological target: T4, activin; experiment: Biacore SPR, 25 C; Fc fusion captured with mouse antibody capture kit, ligand as soluble analyte
Text: as §1

[9] = biological target: T5, GDF-11 (UniProt O95390 299-407); experiment: as above
T5 sequence (looked up): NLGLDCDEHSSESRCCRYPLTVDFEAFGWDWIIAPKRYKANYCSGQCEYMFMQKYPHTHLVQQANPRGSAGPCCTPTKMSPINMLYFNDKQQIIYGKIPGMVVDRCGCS
Text: as §1

[10] = biological target: T6, BMP-4 (UniProt P12644 293-408); experiment: as above
T6 sequence (looked up): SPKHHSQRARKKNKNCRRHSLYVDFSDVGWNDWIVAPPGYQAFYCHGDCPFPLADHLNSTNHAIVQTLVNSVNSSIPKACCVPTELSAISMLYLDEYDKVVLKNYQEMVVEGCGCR
Text: as §1

[11] = biological target: T1, myostatin; experiment: as above
Text: as §1

BMP-2, sequence (P12643 283-396 limits assumed): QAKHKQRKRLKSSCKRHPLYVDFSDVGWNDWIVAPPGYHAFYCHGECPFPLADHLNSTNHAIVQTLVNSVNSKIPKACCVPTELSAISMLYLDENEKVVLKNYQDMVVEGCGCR

B1: FS315-GAG3-mFc (Fc fusion)
chain: GNCWLRQAKNGRCQVLYKTELSKEECCSTGRLSTSWTEEDVNDNTLFKWMIFNGGAPNCIPCKETCENVDCGPGKKCRMNKKNKPRCVCAPDCSNITWKGPVCGLDGKTYRNECALLKARCKEQPELEVQYQGRCKKTCRDVFCPGSSTCVVDQTNNAYCVTCNRICPEPASSEQYLCGNDGVTYSSACHLRKATCLLGRSIGLAYEGKCIKAKSCEDIQCTGGKKCLWDFKVGRGRCSLCDELCPDSKSDEPVCASDNATYASECAMKEAACSSGVLLEVKHSGSCNSISEDTEEEEEDEDQDYSFPISSILEWGAPGGGGGAAAAAGGGGGGAPGGGGGAAAAAGGGGGGAPGGGGGAAAAAGGGGGGAPGCKPCICTVPEVSSVFIFPPKPKDVLTITLTPKVTCVVVDISKDDPEVQFSWFVDDVEVHTAQTQPREEQFNSTFRSVSELPIMHQDWLNGKEFKCRVNSAAFPAPIEKTISKTKGRPKAPQVYTIPPPKEQMAKDKVSLTCMITDFFPEDITVEWQWNGQPAENYKNTQPIMDTDGSYFVYSKLNVQKSNWEAGNTFTCSVLHEGLHNHHTEKSLSHSPGK
notes: also called FS315-mFc; FS315-Fc
IC50 (read off the curve); CAGA-luciferase reporter in HEK293 cells, myostatin (1.2 nM)-induced Smad2/3 signalling [1]: ~0.3 nM | binding result [2]: no binding | binding result [3]: no binding | binding result [4]: no binding | IC50, CAGA-luciferase reporter assay for Smad2/3 signaling (1.2 nM activin) [5]: 0.36 nM | IC50, CAGA-luciferase reporter assay for Smad2/3 signaling (1.2 nM myostatin) [6]: 0.46 nM | fold increase of binding affinity against follistatin (FS315) [7]: ≥ 10 fold | Kd [8]: 0.038 pM | Kd [9]: 0.018 pM | Kd [10]: 81 nM | Kd [11]: 0.073 pM

— patent publication US20180305421A1 (SHIRE HUMAN GENETIC THERAPIES, published 2018)
